In the test the target is Fc protein. Nature of the test: ELISA, Fc protein coated, 10 ng VHH/well. (In an ELISA, binding on a coated surface is turned into a signal by an enzyme label.)

B1: CTLA4 heavy chain single domain antibody No. J38 (VHH)
VHH: QVQLQESGGGSVQAGGSLRLSCAPSRYSGALMGWFRQAPGKEREGVAVISRSGLTTYYADSVKGRFTISQDTAKNTIYLQMNSMKPEDTAMYYCVAGWHVGGTWSETSSYDYWGQGTQVTVSS
The molecule B1 gave an OD (against Fc) of 0.752 OD405.

B2: CTLA4 heavy chain single domain antibody No. 188 (VHH)
VHH: QVQLQESGGGSVQAGGSLRLSCAASGYTYSSVCMGWFRQALGKEREAVVGIDGDGITMYANSVKGRFTISKDNAKNTLYLQMNSLKPEDTAMYYCASGGGQGDGSCALTYWGQGTQVTVSS
The molecule B2 displayed an OD (against Fc) of 1.02 OD405.

Values taken from patent publication US20190315864A1.
